Assay results as given in US20260209294A1, “USE OF RECOMBINANT PROTEIN IN PREPARING DRUG FOR INHIBITING ANEURYSM” (HUAZHONG UNIVERSITY OF SCIENCE AND TECHNOLOGY, priority 2022, published 2026).

Tested on: TAC-induced mouse aneurysm model
Assay: TAC (transverse aortic constriction)-induced aneurysm model, i.p. recombinant AGGF1 or AGGF1-RDDdel protein
Type: in vivo, C57BL/6 mice
From the text: RCAs are harvested after 21 days for the histological staining. […] The bar graphs at the bottom show the intima thickness (1st graph), the adventitia thickness (2nd graph), the total arterial wall thickness (3rd graph), a media cell density (4th graph), and the adventitia cell density (5th graph). […] The bar graphs on the right show the percentage of the collagen area and the percentage of the α-SMA positive area. * P<0.05; **, P<0.01; ***, P<0.001; a mouse sample size n=6/group.
RCAs are harvested after 21 days for the histological staining and the western blot analysis. […] Bar graphs below show the percentage of the MCP1-positive cell area and the CD68-positive cell area. […] The β-actin serves as a loading control. […] The β-actin serves as a loading control. *, P<0.05; **, P<0.01; *** P<0.001; a mouse sample size n=6/group, other sample sizes n=4/group.
The bar graph on the right illustrates the luminal diameter of the ascending aorta. An ascending aortic tissue is harvested after 21 days for the histological staining. […] The bar graphs below display the intimal thickness (1st graph), the adventitia thickness (2nd graph), the total arterial wall thickness (3rd graph), the medial cell density (4th graph), and the adventitia cell density (5th graph). *, P<0.05; **, P<0.01; ***, P<0.001; a mouse sample size n=6/group.
The ascending aortic tissue is harvested for the histological staining 21 days after the surgery. […] Below are quantitative bar graphs showing the quantitation of the percentage of the positive area for each corresponding stain. *, P<0.05; **, P<0.01; *** P<0.001; a mouse sample size n≥6/group.
FIG. 7 depicts that the intraperitoneal injection of the purified human AGGF1 protein, dependent on the RDD sequence, attenuates a TAC-induced ascending aortic TGF-β1 maturation and a signaling pathway, as well as the ERK1/2 signaling pathway. The RCAs are harvested after 21 days for the western blot analysis. […] The β-actin serves as a loading control. […] The β-actin serves as a loading control. *, P<0.05; **, P<0.01; ***, P<0.001; sample size n=4/group.
The research team obtained blood vessel samples from the thoracic aorta of 8 normal individuals and 8 patients with the thoracic aortic aneurysm from the hospital. […] Subsequently, the research divided C57BL/6 mice into 6 groups: after sham surgery, they were divided into a buffer group, an AGGF1 group, and an AGGF1-RDD^del group (Sham+buffer, Sham+AGGF1, Sham+AGGF1-RDD^del), and after the TAC surgery, they were divided into a buffer group, an AGGF1 group, and an AGGF1-RDD^del group (TAC+buffer, TAC+AGGF1, TAC+AGGF1-RDD^del), with each group having mice ≥6. Buffer was protein elution solution. 21 days after the TAC surgery, Doppler ultrasound was used to detect vascular luminal diameter, and carotid artery and aorta were collected for histological staining and Western blot to evaluate the effect of AGGF1. Starting from the second day after the surgery, recombinant AGGF1 protein or AGGF1-RDD^del protein was administered through intraperitoneal injection in the mice, with the same dose of EB as control, once every 2 days for 3 weeks. The protein dosage was 0.5 mg/kg.

[1] = after TAC vs buffer, 0.5 mg/kg i.p. once every 2 days for 3 weeks, day 21
[2] = after TAC, 0.5 mg/kg i.p., day 21
[3] = regardless of sham or TAC surgery, 0.5 mg/kg i.p.

B1: AGGF1 protein: recombinant human AGGF1 protein with His tag, SEQ ID NO:1, expressed from pet28-AGGF1 in Escherichia coli BL21 (DE3) (protein, listed as Homo sapiens)
chain: MASEAPSPPRSPPPPTSPEPELAQLRRKVEKLERELRSCKRQVREIEKLLHHTERLYQNAESNNQELRTQVEELSKILQRGRNEDNKKSDVEVQTENHAPWSISDYFYQTYYNDVSLPNKVTELSDQQDQAIETSILNSKDHLQVENDAYPGTDRTENVKYRQVDHFASNSQEPASALATEDTSLEGSSLAESLRAAAEAAVSQTGFSYDENTGLYFDHSTGFYYDSENQLYYDPSTGIYYYCDVESGRYQFHSRVDLQPYPTSSTKQSKDKKLKKKRKDPDSSATNEEKDLNSEDQKAFSVEHTSCNEEENFANMKKKAKIGIHHKNSPPKVTVPTSGNTIESPLHENISNSTSFKDEKIMETDSEPEEGEITDSQTEDSYDEAITSEGNVTAEDSEDEDEDKIWPPCIRVIVIRSPVLQIGSLFIITAVNPATIGREKDMEHTLRIPEVGVSKFHAEIYFDHDLQSYVLVDQGSQNGTIVNGKQILQPKTKCDPYVLEHGDEVKIGETVLSFHIHPGSDTCDGCEPGQVRAHLRLDKKDESFVGPTLSKEEKELERRKELKKIRVKYGLQNTEYEDEKTLKNPKYKDRAGKRREQVGSEGTFQRDDAPASVHSEITDSNKGRKMLEKMGWKKGEGLGKDGGGMKTPIQLQLRRTHAGLGTGKPSSFEDVHLLQNKNKKNWDKARERFTENFPETKPQKDDPGTMPWVKGTLE
modifications: His tag
TAC, 0.5 mg/kg i.p., day 21
  ascending aortic expansion (FIG. 5): significantly inhibit
  vascular thickening (H&E staining, ascending aorta, FIG. 5): significantly inhibit
[1]
  vascular expansion (right carotid artery, FIG. 3): significantly inhibit
  vascular remodeling (right carotid artery, FIG. 3): significantly inhibit
After TAC vs buffer, 0.5 mg/kg i.p., day 21
  vascular inflammation (MCP-1, CD68; right carotid artery, FIG. 4): significantly inhibit
[2]
  inflammation of the ascending aorta (FIG. 6): inhibited
  remodeling of the ascending aorta (FIG. 6): inhibited
[3]
  level of the mature TGFβ1 (Western blot, RCA, FIG. 4): inhibit
  p-ERK1/2 (Western blot, RCA, FIG. 4): inhibit
  p-Smad3 (Western blot, RCA, FIG. 4): inhibit
Sham group, 0.5 mg/kg i.p. once every 2 days for 3 weeks
  effect on the carotid artery and aorta: little effect
